Target: SARS-CoV-2 receptor binding domain (RBD) (Severe acute respiratory syndrome …, UniProt P0DTC2)
Assay: ELISA

B1: C212 (antibody, V domains shown)
VH: QVQLVQSGAEVKKPGASVKVSCKASGYTVTGYYIHWVRQAPGQGLEWMGWISPNSGGTNYAQKFQGWVTMTRDMSITTAYMELSRLRSDDTAVYYCARERYFDLGGMDVWGQGTTVTVSS
VL: LTQPASVSGSPGQSITISCTGTSSDVGSYNLVSWYQQHPGKAPKLMIYEDSKRPSGVSNRFSGSKSGNTASLTISGLQAEDEADYYCCSYAGSSTRLFGGGTKLTVL
B1: no binding (tested: >1000 ng/ml).

From PMC7263513 (bioRxiv, 2020)
